Experiment: Pharmacokinetic study of GDNF-TPN (human GDNF ELISA)
Type: in vivo, healthy CD-1 mice
Conditions: after i.v. injection
Procedure: Healthy CD-1 mice were randomly allocated into three treatment groups and received a single i. v. injection of GDNF-TPN, Free GDNF or saline at a matched dose of 15 mg GDNF/kg. At 0.5, 1, 2, 4, 6 and 24 hours after injection, whole blood was collected in heparinized tubes from ketamine anesthetized mice by cardiac puncture. Following perfusion with ice-cold saline via the left ventricle, the brains and organs were harvested, rinsed in PBS, weighted, snap-frozen and stored at −80° C. for further analysis. The mouse tissues were homogenized with RIPA buffer containing protease inhibitors and the GDNF was assayed using Human GDNF Elisa kit (Abcam, CA) under manufacture's protocol. […] Free GDNF was quickly eliminated from the blood within 2 hours after injection.

B1: glial cell line-derived neurotrophic factor (protein, UniProt P39905 78-211, looked up)
Glial cell line-derived …: SPDKQMAVLPRRERNRQAAAANPENSRGKGRRGQRGKNRGCVLTAIHLNVTDLGLGYETKEELIFRYCSGSCDAAETTYDKILKNLSRNRRLVSDKVGQACCRPIAFDDDLSFLDDNLVYHILRKHSAKRCGCI
notes: Human GDNF, free protein solution used as comparator
Time to elimination from the blood: ≤ 2 h
